Assay results from article PMC6237754, “A monovalent ion in the DNA binding interface of the eukaryotic junction-resolving enzyme GEN1”.

Molecular target: T1, CtGEN1 (Chaetomium thermophilum, UniProt G0RYN2 1-487)
T1 sequence: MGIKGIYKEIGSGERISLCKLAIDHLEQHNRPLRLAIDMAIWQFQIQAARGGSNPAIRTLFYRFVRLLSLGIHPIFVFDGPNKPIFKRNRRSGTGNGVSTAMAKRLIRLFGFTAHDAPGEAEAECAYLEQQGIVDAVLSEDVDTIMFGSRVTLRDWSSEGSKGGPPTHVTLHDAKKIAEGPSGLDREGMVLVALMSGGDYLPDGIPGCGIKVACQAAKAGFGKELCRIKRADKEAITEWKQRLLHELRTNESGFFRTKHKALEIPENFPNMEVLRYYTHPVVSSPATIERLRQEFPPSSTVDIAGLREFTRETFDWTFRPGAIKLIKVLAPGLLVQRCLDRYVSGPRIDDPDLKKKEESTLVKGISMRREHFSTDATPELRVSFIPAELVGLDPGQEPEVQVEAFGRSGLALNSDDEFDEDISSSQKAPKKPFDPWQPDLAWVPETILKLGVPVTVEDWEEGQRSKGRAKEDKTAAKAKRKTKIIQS
Experiment: EMSA; 100 mM KCl; EMSA: equal volumes of DNA in 10 mM Tris pH 7.5, 0.1% BSA, 100 mM KCl or NaCl and CtGEN1 in 10 mM Tris pH 7.5, 100 mM NDSB-195, 0.1% BSA, 1 mM EDTA; 20 min, 20
Conditions: protein: recombinant; tags: C-terminal His6; chain copies: 2; label: 5'-32P; four-way junction; strands b/h/r/x, 50 nt each

B1: four-way junction 3 (4H) (structured_DNA)
DNA 1: CCTCGAGGGATCCGTCCTAGCAAGGGGCTGCTACCGGAAGCTTACAGATG
DNA 2: CATCTGTAAGCTTCCGGTAGCAGCCTGAGCGGTGGTTGAATTCACAGATG
DNA 3: CATCTGTGAATTCAACCACCGCTCAACTCAACTGCAGTCTAGAACACATG
DNA 4: CATGTGTTCTAGACTGCAGTTGAGTCCTTGCTAGGACGGATCCCTCGAGG
For B1, the binding signal was ~2 fold higher affinity than in Na+.
